Measurements reported in the supplement of paper PMC10266784.

B1: library; numbered along this chain (parent)
chain: MAAAAAAAAEQQSSNGPVKKSMREKAVERRSVNKEHNSNFKAGYIPIDEDRLHKTGLRGRKGNLAICVIILLFILAVINLIITLVIWAVIRIGPNGCDSMEFHESGLLRFKQVSDMGVIHPLYKSTVGGRRNENLVITGNNQPIVFQQGTTKLSVENNKTSITSDIGMQFFDPRTQNILFSTDYETHEFHLPSGVKSLNVQKASTERITSNATSDLNIKVDGRAIVRGNEGVFIMGKTIEFHMGGNMELKAENSIILNGSVMVSTTRLPSSSSGDQLGSGDWVRYKLCMCADGTLFKVQVTSQNMGCQISDNPCGNTH

Variants of: B1
Assay: SGCB cell-surface expression functional score (HA stain, bin4 vs bin1, normalised to synonymous) (log10 ratio); higher = more cell-surface SGCB (functional)
Procedure: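 Deep mutational scan of full-length human SGCB (YFP-SGCB-HA, NNN codon sublibraries A-F) delivered by lentivirus at low MOI into ADG-HEK293 cells stably expressing SGCA, SGCD and SGCG. YFP-positive cells were stained for surface HA on unpermeabilized cells and FACS-sorted into bins. The functional score is log10(frequency in high bin 4 / frequency in low bin 1), normalised per chunk so that synonymous variants have mean 0 and SD 0.5. Scores are the median over codons and over duplicate biological replicates; scores below -0.5 are called non-functional. Scale: negative means deleterious.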

SGCB cell-surface expression functional score (log10): each site, then its substitutions
A65: K 0.51, G -0.03, H -0.17, Y 0.12, L 0.15, W 0.48, D 0.08, M -0.02, S 0.01, Q -0.13, I 0.15, E -0.2, R -0.07, N 0.06, F 0.21, P -0.28, V 0.3, C 0.32, T -0.01
I70: P 0.16, K 0.19, Y -0.14, N 0.07, L -0.1, H -0.21, A 0.41, G 0.35, D -0.14, S 0.36, M 0.77, R -0.16, E -0.22, V 0.53, F -0.2, Q 0.06, C -0.3, T -0.22, W 1.07
I66: H -0.2, F -0.03, R 0.43, Y 0.29, D 0, E 0.12, Q -0.15, L -0.78, M 0.3, N 0.47, A -0.11, P -0.35, V 0.2, W 0.01, T 0.03, C 0.65, S 0.07, K 0.5, G 0
R60: Y -0.12, V -0.09, F -0.05, P -0.19, Q 0.38, G -0.33, W -0.101, E 0.4, L 0.11, K 0.08, C 0.47, I 0.5, S 0.18, N 0.1, A -0.28, T 0.01, H -0.21, D 0.39
R58: N 0.17, L 0, T 0.24, H 0.19, V -0.04, M -0.15, S -0.22, C -0.55, K -0.66, D 0.21, E -0.08, Y 0.71, G 0, I 0.13, W -0.26, P 0.27, F 0.09, Q -0.12, A 0.08
L72: C 0.42, G 0.44, A -0.23, E -0.02, H -0.05, F 0.07, I 0.41, D -0.14
N63: M -0.11, A -0.08, L 0.03, W 0.22, S -0.25, Q 0.11, D -0.06, V -0.44, Y 0.25, E -0.28, T 0.43, I -0.14, H 0.28, F 0.08, G 0.13, R 0.07, K 0.24, C -0.16, P 0.32
V68: E -0.1, P 0, Q -0.15, R 0.06, Y -0.25, M -0.35, H -0.35, S 0.36, A -0.01, T 0.29, N 0.03, F 0.55, W 0.12, L -0.04, I 0.05, K 0, D -0.25, G 0.24, C 0.91
G59: C 0.05, I -0.01, K 0.12, T 0.25, E -0.2, A -0.59, Q -0.24, M 0.31, R -0.17, F 0.13, V 0.33, S -0.13, Y 0.17, P 0.12, H 0.1, D 0.04, L 0.09, N 0
C67: T -0.03, E 0.39, Y 0.04, S 0.04, N 0.19, G 0.18, D 0.11, R 0.08, M -0.01, H 0.38, A 0.57, Q 0.4, K 0.29, P 0.26, L 0.25, W 0.43, V 0.28, F -0.08, I 0.33
L57: N 0.02, P -0.03, I 0.49, R 0.07, F 0.06, V 0.2, D -0.4, Q -0.03, T 0.18, A 0.45, K 0.32, E 0.04, Y 0.49, W 0.44, G 0.28, M 0.09, H -0.36, C 0.07, S 0.11
G62: D 0.29, Y -0.05, R 0.23, I 0.26, L 0.53, F 0.5, M 0.13, A 0.02, S 0.18, K -0.29, C 0.33, V -0.21, Q 0.34, T -0.09, H 0.18, W -0.11, E 0.11, N -0.29, P 0.36
I69: L 0.2, A -0.17, V -0.05, Y 0.41, T -0.01, P 0.36, G 0.2, E 0.15, R 0.11, K -0.04, S 0.09, M 0.22, N 0.62, F 0.52, C 0.05, D -0.11, H 0.03, Q 0.03, W 0.3
T55: M 0.6, D 0.39, A -0.43, R 0.21, Y 0.15, N 0.75, S 0.22, E -0.18, L 0.08, F 0.18, C 0.27, K -0.06, P 0.19, G 0.16, V -0.07, H 0.01, I 0.07, Q -0.62, W -0.27
G56: F 0.28, P 0.22, V 0.05, W -0.16, Q -0.39, L 0.23, D -0.5, T 0.4, K 0.41, R 0.14, C -0.17, H 0.15, Y 0.34, I 0.26, N -0.1, E -0.3, M -0.31, S 0.21, A 0.21
K61: P -0.2, R -0.23, G 0.03, N -0.39, W 0.05, C 0.35, T 0.03, D -0.36, E -0.08, F 0.7, H -0.27, V 0.07, I 0.48, M -0.03, L 0.26, Q -0.08, A -0.12, Y 0.64, S 0.07
K54: S 0.14, W 0.69, T 0.27, Y 0.29, V 0.08
L64: F 0.43, G -0.2, P -0.26, Q 0.03, M -1.4, C 0.26, W -0.254, E -0.26, H 0.16, N 0.28, V 0.25, A -0.31, Y 0.16, D -0.4, R 0.07, S 0.31, T 0.11, K 0.15, I -0.1
L71: W 0.61, G 0.23, P -0.04, C -0.37, T 0.07, I -0.45, Y -0.5, N 0.19, A 0.26, K 0.36, V 0.22, Q 0.12, M 0.01, F -0.14, H 0.06, E 0.1, S 0.06, R -0.37, D -0.08
